B1: SAHM1-D1 (peptide)
peptide: Ac-W[βAla]RELRREI[S5]LCR[S5]HHST
modifications: staple 10-14
B2: SAHM1-27 (E21-Y41 scaffold, L23W/L29W double mutant) (peptide)
peptide: Ac-W[βAla]ERWRRRI[S5]WCR[S5]HHSTCEARY
modifications: staple 10-14; cysteine pairing not given here
B3: SAHM1-43 (peptide)
peptide: Ac-W[βAla]ERWRRRL[S5]WCR[S5]HHST[dPhe(F5)]EARY
modifications: staple 10-14
B4: SAHM5 (peptide)
peptide: Ac-W[βAla]ELER[S5]HTF[S5]LHQR
modifications: staple 7-11
B5: SAHM1-47 (peptide)
peptide: Ac-W[βAla]ERWRRRL[S5]YCR[S5]HHST
modifications: staple 10-14
B6: SAHM1-24 (stapled peptide of the E21-Y41 scaffold) (peptide)
peptide: Ac-W[βAla]ERLRRRI[S5]LCR[S5]HHSTCEARY
modifications: staple 10-14; cysteine pairing not given here
B7: SAHM1-56 (E21-T36 scaffold with L23W, L29Y and C30F) (peptide)
peptide: Ac-W[βAla]ERWRRRI[S5]YFR[S5]HHST
modifications: staple 10-14
B8: SAHM1-22 (peptide)
peptide: Ac-W[βAla]ERWRRRI[S5]FCR[S5]HHST
modifications: staple 10-14
B9: SAHM1-28 (peptide)
peptide: Ac-W[βAla]ERLRRRI[S5]LCR[S5]HHSTFEARY
modifications: staple 10-14
B10: SAHM1-76 (peptide)
peptide: Ac-W[βAla]ERWRRRL[S5]YCR[S5]HHSTCEARYEAVSPERL
modifications: staple 10-14; cysteine pairing not given here
B11: SAHM1-38 (peptide)
peptide: Ac-W[βAla]ERWRRRL[S5]WVR[S5]HHST
modifications: staple 10-14
B12: SAHM1-60 (peptide)
peptide: Ac-W[βAla]ERWRRRL[S5]YFR[S5]HHST[dPhe(F5)]EARY
modifications: staple 10-14
B13: SAHM1-62 (E21-Y41 scaffold with L23W, L29Y, C30F, C37 D-pentafluoro-Phe and Y41 1-naphthylalanine) (peptide)
peptide: Ac-W[βAla]ERWRRRI[S5]YFR[S5]HHST[dPhe(F5)]EAR[1Nal]
modifications: staple 10-14
B14: SAHM1-39 (peptide)
peptide: Ac-W[βAla]ERWRRRL[S5]WFR[S5]HHST
modifications: staple 10-14
B15: SAHM1-51 (peptide)
peptide: Ac-W[βAla]ERWRRRL[S5]LCR[S5]HHSTCEAR[1Nal]
modifications: staple 10-14; cysteine pairing not given here
B16: SAHM1-25 (E21-Y41 scaffold, L23W/C30F double mutant) (peptide)
peptide: Ac-W[βAla]ERWRRRI[S5]LFR[S5]HHSTCEARY
modifications: staple 10-14
B17: SAHM1-80 (peptide)
peptide: Ac-W[βAla]ERWRRRL[S5]YVR[S5]HHSTCEARYEAVSPERL
modifications: staple 10-14
B18: SAHM1-81 (peptide)
peptide: Ac-W[βAla]ERWRRRL[S5]WCR[S5]HHSTCEARYEAVSPERL
modifications: staple 10-14; cysteine pairing not given here
B19: AcW-SAHM1 (stapled MAML1 E21-T36 peptide with N-acetyl tryptophan cap) (peptide)
peptide: Ac-W[βAla]ERLRRRI[S5]LCR[S5]HHST
modifications: staple 10-14
B20: SAHM1-48 (peptide)
peptide: Ac-W[βAla]ERWRRRL[S5]YVR[S5]HHST
modifications: staple 10-14
B21: SAHM1-26 (peptide)
peptide: Ac-W[βAla]ERWRRRI[S5]FCR[S5]HHSTCEARY
modifications: staple 10-14; cysteine pairing not given here
B22: SAHM1-52 (peptide)
peptide: Ac-W[βAla]ERWRRRL[S5]LCR[S5]HHST[I_N]EARY
modifications: staple 10-14; reading uncertain
B23: SAHM1-55 (peptide)
peptide: Ac-W[βAla]ERWRRRI[S5]YCR[S5]HHST
modifications: staple 10-14
B24: SAHM1-35 (peptide)
peptide: Ac-W[βAla]ERWRRRL[S5]LFR[S5]HHST[dPhe(F5)]EARY
modifications: staple 10-14
B25: SAHM1-61 (peptide)
peptide: Ac-W[βAla]ERWRRRL[S5]YFR[S5]HHSTCEAR[1Nal]
modifications: staple 10-14
B26: SAHM1-59 (peptide)
peptide: Ac-W[βAla]ERWRRRL[S5]YCR[S5]HHSTCEARY
modifications: staple 10-14; cysteine pairing not given here
B27: SAHM1-50 (peptide)
peptide: Ac-W[βAla]ERWRRRL[S5]LCR[S5]HHSTCEAR[2Nal]
modifications: staple 10-14; cysteine pairing not given here
B28: SAHM1-25 (E21-Y41 scaffold, L23W/C30F double mutant), Q92585 21-41 (peptide)
peptide: Ac-W[βAla]ERWRRRI[S5]LFR[S5]HHSTCEARY
modifications: staple 10-14
B29: SAHM1-62 (E21-Y41 scaffold with L23W, L29Y, C30F, C37 D-pentafluoro-Phe and Y41 1-naphthylalanine), Q92585 21-41 (peptide)
peptide: Ac-W[βAla]ERWRRRI[S5]YFR[S5]HHST[dPhe(F5)]EAR[1Nal]
modifications: staple 10-14
B30: Bio-SAHM1 (biotinylated stapled MAML1 E21-T36 peptide) (peptide, UniProt Q92585 21-36, looked up)
peptide: ERLRRRI[S5]LCR[S5]HHST
modifications: staple 8-12; not fully specified (N-terminus); also: biotin label, linker not described

33 molecules from patent publication US20140256912A1, “Stabilized Variant MAML Peptides and Uses Thereof” (PRESIDENT AND FELLOWS OF HARVARD COLLEGE, priority 2011, published 2014) can be followed below.

Bridge positions count the residues as written; N and C are the ends. Square brackets hold non-standard residues; d marks the D form. Ends that are not written are not given here. dPhe(F5) = N[C@H](Cc1c(F)c(F)c(F)c(F)c1F)C(=O)O; 1Nal = N[C@@H](Cc1cccc2ccccc12)C(=O)O; 2Nal = N[C@@H](Cc1ccc2ccccc2c1)C(=O)O; S5 = C=CCCC[C@](C)(N)C(=O)O; I_N = not defined here; βAla = NCCC(=O)O

In general, Kd refers to the free concentration of one partner at which half of the binding sites on the other are occupied at equilibrium, for simple one-to-one binding. By IC50 is commonly meant the concentration that inhibits the measured activity by half. A low value points to inhibition by little substance.

For one assay, the target named is GST-RAMANK1-CSL complex (human) (UniProt P46531). In words: ALPHAscreen competition against Bio-sdnMAML1 binding to GST-RAMANK1-CSL.
“unlabeled Ac-sdnMAML1 peptide (from UniProt Q92585 16-70)” registered an IC50 (read off the curve) of 100 nM.

The target of a further assay is equimolar RAMANK1-CSL complex (human) (UniProt P46531). In words: SPR, preformed RAMANK1-CSL complex.
The molecule “bio-nt-sdnMAML1 (residues 16-45), N-terminal helix of dnMAML1 (from UniProt Q92585 16-45) (peptide)” came in with a fold decrease in affinity against s-dnMAML1 of 10 fold.

The next assay shares this target. In words: SPR (Biacore 3000), peptide immobilised on a streptavidin chip, equimolar RAMANK1 and CSL injected; bio-nt-sdnMAML1, residues 16-45. Background: SPR reads the build-up and loss of mass on a sensor chip optically.
“bio-nt-sdnMAML1 (residues 16-45), N-terminal helix of dnMAML1 (from UniProt Q92585 16-45) (peptide)” displayed a Kd of 400 nM.

The next assay concerns the target GST-RAMANK1-CSL complex (human) (UniProt P46531). In words: ALPHAscreen titration matrix, binding components in the range of 10-100 nM. For orientation: Bead proximity is the source of the signal in Alpha formats.
“synthetic, biotinylated dnMAML1 (Bio-sdnMAML1, residues 16-70) (from UniProt Q92585 16-70) (peptide)”: the ALPHAscreen luminescent signal (maximum) was found to be 45000 c.p.s.

A further assay has the same target. In words: ALPHAscreen NTC competition: peptide titrated against Bio-sdnMAML1 binding to GST-RAMANK1-CSL; IC50 with 95% CI.
For B1, the IC50 was 3700 nM.
With B2, the IC50 came to 200 nM.
Same read-out and setting: for B3 the value was 780 nM; for B4, 6500 nM; for B5, 460 nM.
On the same count and under the same terms, the figure for B6 is 1120 nM.
In turn, B7 returned an IC50 of 220 nM.
On to B8, for which the IC50 turned out to be 690 nM.
As for B9, the IC50 stood at 560 nM.
The same measure, in the same setting: the figure for B10 is 270 nM; for B11 it is 540 nM; for B12 it is 450 nM.
The same measure, in the same setting: for B13 the value was 320 nM.
The same measure, in the same setting: for B14 the value was 900 nM; for B15, 360 nM; for B16, 290 nM.
Turning to B17, the IC50 came out at 360 nM.
Same read-out and setting: for B18 the value was 370 nM.
On to B19, for which the IC50 came to 1700 nM.
On the same count and under the same terms, for B20 the value was 670 nM; for B21, 850 nM.
Still for that read-out and setting: the figure for B22 is 610 nM; for B23 it is 250 nM.
Still for that read-out and setting: for B24 the value was 1200 nM; for B25, 440 nM; for B26, 340 nM.
In turn, B27 registered an IC50 of 410 nM.

The target in another assay is NOTCH1-CSL transactivation complex in U2OS cells transfected with the truncated, constitutively activated ΔEGFΔLNR-NOTCH1 allele, P46531. The assay is described as follows: cell-based or functional assay.
As for B28, the EC50, NOTCH1-driven CSL-luciferase dual reporter in U2OS cells came out at 10000 nM and the fold lower IC50 than SAHM1, NOTCH1 reporter gene assay was determined as 2 fold.
On the same counts, the results for B29 are 5000 nM and 4 fold.

The target in the next assay is equimolar RAMANK1-CSL complex (human) (UniProt P46531). In words: SPR (Biacore 3000), peptide immobilised on a streptavidin chip, equimolar RAMANK1 and CSL injected; bio-SAHM1, stapled peptide.
In turn, B30 registered a Kd of 100 nM.

For another assay the target is unchanged. In words: SPR (Biacore 3000), peptide immobilised on a streptavidin chip, equimolar RAMANK1 and CSL injected; bio-sdnMAML1, residues 16-70.
Regarding “synthetic, biotinylated dnMAML1 (Bio-sdnMAML1, residues 16-70) (from UniProt Q92585 16-70) (peptide)”, the Kd was determined as 40 nM.

A further assay addresses GST-RAMANK1-CSL complex (human) (UniProt P46531). In words: ALPHAscreen, 40 nM of all partners.
For the molecule “synthetic, biotinylated dnMAML1 (Bio-sdnMAML1, residues 16-70) (from UniProt Q92585 16-70) (peptide)”, the signal-to-noise ratio stood at 30 fold.
